# Results from the DeepSol protein solubility set.
# Assay: soluble on expression in E. coli; label from the status in PepcDB or PDB records
row,Sequence,soluble on expression in E. coli
1,MAHHHHHHMELLTSVFQRHPPALRLHRELTIALADGDSARAADLASVLATTVQRVVAAEADSSDAATPPEGHANTGHFSQRDIPVAGLEDVEEAVEKTRQTLLREATVRVSSGVARDTGGSAISSEPAAAERSLPFWRDPERLCVTILESMFETEVLGGESQDTLTAAGNRAAEHEAEQVRILDAYLDKEGARWNAQKAAIAKIVLDVTRSLGLTPEDLQAFEGISASAGAGAAAAAGERKLNVLRHSNLVIRGEMPSAPLSSTASECVAEGVETELRALEERMSSLGQPLTPWEVRMARYELQMSKSKMRYVVGVHKELQLALDHSAALRASLREKSTAEVTFTTGTEVFMAEVIRALNEGADAYSANVTAEGAQLTVSNVKAREAVESPVLPFTFMLKGSLWFTTAPSRPPSSSSD,soluble
2,MAHHHHHHMFFCPFCSTLLLVVPHVEGNALVCATCRYVHSVASASPQVPRNAFGEPILTIQHSFVAHNRQLMDAEEDPAMEAAASSSAAACHTTAAFTPVVKAETSAEGGQITTIPCQNEDNPCQSTKAYFIQIQMRSADEPATVFFKCVECGHQWRQD,not soluble
3,MAHHHHHHMFLIVDAGDMLVEGLFVEANNTTLHYREKFIVKNTDGSMAINAASMTRQLHPRKQMHLHPSSLPIAIHQDNRTPLQHMLRGTHHMQRPTVVSCNTPTMAIMKGTEDVVLRRDTTTRHAGAQFRALQDLLQLKRARAGHTHLTSRSKWIGLDRQKRTPHRF,not soluble
4,MAHHHHHHMFLRVPLFVAHLRLLPRQRIYMGAHCGGNIWANGRSVSVHFMVGWCYTMSRDVAEASVSFKPLRRLAHTPYSKERDEEFSSIGMGHEDMMVGHVLLDEVKYQPLIHVKVLPCHFLEARSDTGESQVVPTSMCVHHIREDDYAALMARFGNDTSPVARLWRVSEDVIYPSCD,not soluble
5,MAHHHHHHMGCGGSKPNAVSRDVEEKALYLRGIKESIDKAEGNMLATLHALQALMRSYESTSYSFVELAHGTDGNTSLKAKTFESDMRTLKDSGIMPKLQKDLGQSVSSLGKDIRAKHDKANVVYREMTQANDAYCKLRERVNGIEKSYAKKNKPVSECPSYTKNCKERDVCLARYEGLKKVFLTLVEELRTLIRSYVTAGLTRYAFSTADYAQQLVNSLQKYKSE,soluble
6,MAHHHHHHMGCTASKTKTPAANVASKGADEFYALATTERHPVAEKLLEEWVLFVDAQARRNAGDSSAARAYETRLKEVWADTTNRPVTHRSVDYVGKMFLEYIKEDLSHRGWGGNFDYKVAGVVTQGFLKANANIDTALSDTPEEVTWEIKIHYDSLGVS,soluble
7,MAHHHHHHMGDNGGMVLFKAIAGAIEDGEDKLEYLNLEVNELGEKTAKAMQRVLSSSTALKTLRLSYNSFGGASKYIMEGLAENKYLRSLFLSFCEIREADGAAIGTALTANSTLQHLDLSNNKLKDAGSKCIAEAMKTNEGLISLNLSCNKIADDGGKAIALFLTSNRTLRELNLRRNCMSNATGELLDDQLRGNMTLEKMNVGFNDFRYKSLIGHRTTLARNAEKNKSLIVPKLRAEIEGLSFKERDLSQAEDEIEMERRIIKDRSEQLLRRNEEARVASEKARREIADLEKNLAAVRVRFESAEEVLLRTEERVSNEMAEISGRKANMEARVQQEREKVDRLQREMDRVRRQLKQLEEAEASRLKPLFLEFGIAEADRDREAKECQYEADKLAALELQRKELEKKLGLSLPVAGGVSAPTAKKRK,not soluble
8,MAHHHHHHMGFWVFDRVADGFLFRGRRQLSRLHQRNAMLDANGMPLTGDLAAEATTWRSQHAFSGRCGLSVKRSPEPHDNRDEARRNGGGDVPHPEKMLPSYECIISRSPNDYRAWAVDFHLQSTSEDPHVLLSVAPYYAPLQSNFVEGGRSWHPPTTEEQEMYDKRMLETPLIWEEPMTLSLDCTNSGMFLWSEEWKIFGEKIADNCFSRRSQSRGGDDSVDQMGGVSGVREGPYEAFVRLSWRMMSAGENDMYGGEKRSLSDASVRNIIVGPCQGEMTVFLRTSSSDQEEGDVSVPRQINGTGNVGAHGGESVSSGVQVWKRAGGRAVLGDDIPNEIYFTPYVTLMDAGDEAILL,soluble
9,MAHHHHHHMGIYSDTDDDSPIGIEVVGEASSDSEEPNPHSTTKRKVSGAVDHNNGYNQKKNKRRRLKNKWEENPQLHETPDEEQISNVKKRVYVLDTCSIVEHIEWSILEEVAKYYLIIIPKKVMDELGKMEGGRGSTCNRVLNKLENEHTSNKMNVGFRLQRKNDKDKNVLSAARVNDDHILSCACSFRNEHDVVLVTSDNILKLKAYAEGIPTVSTLKDVTRLTNGLRGGKFE,not soluble
10,MAHHHHHHMGKPKYLKKKQAAAAAGSEDGADKDVSDNTENTNGSPTTTNALGKQSEAAKEEPHSSGAMVSFANPVYRQGVNDILVEKLDISYQGNAILENATLNLVSGHRYGLVGPNGCGKSTLLRVLGCHEIPFPSHVDRYYVSQEVEASDMSALDAVLAVDKEREKLESEMEDLALGDQEDPHVLSRLDDIYKRLDELDADTAAARAGKILFGLGFTKEMQRRPTKAFSGGWRMRISLAQALFINPTVLLLDEPTNHLDIEAVVWLENYLSKFKKTLFMVSHSQDFMNNVCTDICHMHLKKLNCYDGNYDQYCITREEKESNQMKKYQWEQNQIKNMKEYIARFGHGSAKLARQAQSKEKTLAKMTRGGLTDAVVKDSRINFEFPCAGPLPPPMLQFREVSFNYPGRPSLFTNLDLGVNMDSRICLVGPNGAGKTTLTKLMCRELEPTAGYVAKNAHCVMARFHQHFVDQINMDLTPLEWMSQEYPDVTQPPILRSALGRFGVSGKAQMTPMKTLSDGQKSRVVFAWMAYKRPHFMILDEPTNHLDIESIDALADAINNFEGAVVVVSHDLRLLAQVADEIWIVEQGEAKRFNGDIADYKEHVQNEVNRMMQNYAASL,not soluble
11,MAHHHHHHMGQGFSRAQMEEYKELVKDRFSEEAIEFLFMKFHKAAPEGVMTPVEFKRYIDSTGVYKNYRRTHLASWFPSYAKYTHSKGGNRAVRKTSAQILDREMYLHLFRAYDRDCDGVISFREFLLYHLAVMYSTEELFVVVFNAYDDDQDGYLSLDDIRNTITAATRYVGDCDVEDQEVQRVIDEEAQRLMFFLDVRKDGRIRRDDMRLITQKHPEVLEKMKNLM,soluble
12,MAHHHHHHMGSSSPSSLLPPALMPCHVWEGREEGISVETARGRREVEINRKKGHMASPKEMYEKECRALGVPPNSGLLRMLPESTVNLSGLSVMHLGHNFLGDRGVVPFVHIIAHASSLHTLNLRENGIGNEGVRVLCRGLRRLPALKVLELSGNPFTFLAARQLVYLCEDSPVLSVIGVEGTLMTEKLKTSIIHRIREAVKRREARKQLSQQPSADRDDGQKDMAEGVAEAEGKVVERAAPIAAEEATTLRSRNVGGPCLRKSVLSLVSQDSMSTAMSSKFKKNEPDDQAGPRGANEFASPCSPLPPPPPDDAHQSPLWFDASEDEEQKEEKKEISVATAENDEKMMIDTAGSISFLVDVEELRANSVERELRAQEEMLPWQVSRADDPLRSLHSTHTRIASHRTTEKRSESGTAISFPSSFTLELRTAEAEGKLAECTKSTKGDDFLDLLFGSEVD,not soluble
13,MAHHHHHHMGTLEAQTQGPGSMAKTMKAAVVRAFGKPLTIDEVPIPQPGPGQIQVAIQASGVCHTDLHAAEGDWPVKPNPPFIPGHEGVGFVSAVGSGVKHVKEGDRVGIPWLYTACGHCRHCLGGWETLCEEQLNTGYSVNGGFAEYVVADPNFVGHLPKNIDFNEIAPVLCAGVTVYKGLKVTDTKPGDWVVISGIGGLGHMAVQYARAMGLNVAAVDIDDRKLDLARRLGATVTVNAKTVADPAAYIRKETDGGAQGVLVTAVSPKAFEQALGMVARGGTVSLNGLPPGDFPLSIFNMVLNGVTVRGSIVGTRLDLQESLDFAADGKVKATIQTGKLEDINAIFDDMRQGNIEGRIVMDLTQ,soluble
14,MAHHHHHHMGTLEAQTQGPGSMFELSDLPYEGLEPYISSHLLDRHYNGHHKTYVDVLNKLVVGTEFEGLGNESLGDIVVKAHNSGSAGRAIFNNAAQIWNHDFYWQSMKPNGGGNPPEKLREMIEHSFGSVEGFNNAFTTSGLGQFGSGWVWLVYDEDAKALKVVSTANADSPLLTQGQLPLATMDVWEHAYYLDYLNLRKKYIDVFLEHLLNWDFVLGRLEDAGVL,soluble
15,MAHHHHHHMGTLEAQTQGPGSMKISFSEIIHNALKEDLGDKGDITTNSILINEKVNFAINTRENLVVCGIPILEEVFNMNKEHVKYEIHKKDGDITGKNSTLVSGEALAIYLLPIERVILNFIQHASGIASITRQFVDEVSGTKVKIRSTRKTTPGLRMLDKYSVCIGGGESYRDNLCDGVLIKDNHIASCGSITLAIQRLRKNLKNEYIAIECDNISQVEESLSNNVDMILLDNMSISEIKKAVDIVNGKSVLEVSGCVNIRNVRNIALTGVDYISIGCITNSFQNKDIGLDIEYNNNK,soluble
16,MAHHHHHHMHACVAAIAMGEVGVYDDQRSSGQEISLAAAAAAGVQYARSSRTAFSCTSKSARQGGGGAVPIENLLPPLIEQPEKSLRAARGDTGAAITEDERAAIAMETWEHYMATAREATSAEGASMMPSATAAATMMSSASCANAAHSCTSAVAAEAPLVPIRSFPDALCALIERCTATPLVCLTLSDQQCQTTAVRDLLRALLTIMQRIEDSAVAAIDCEIALASHSSSSGHHTPVAATAALDLQAVRLAAVKGISRVLTTYLDGADGSAQPPTKASETFTAGLGHLDILSVFEDVVHQWAHVLTVLERGKELIGASAGVGKGSDVKAEDDLSGVPESPQGHRSGKDGTGAAAQLHWVLRIAYQIIAAEQREASRGSAEAAPRVRLLPPLLVPVALRTLSLITTVIPLVCRPASYVQLCVDVLWGASLLTPSESSRQLMYGSMGVAGLAGASNGSCEGEADVSRGAEASPPAMDLFLALLHQFNEGHSAAHRELRDDLVCLFAFLLRCDIQYVENKLVAQSCRAEWSPTNVFGVNSAVSPPPRLRSKLTPRRSISTSPLWRRSTLWRRCCSRQRAGPNSQRRCTRPQPQPQRRFSPPTSIEANLLR,not soluble
17,MAHHHHHHMHMFTNDWKSILAPLKSCRIKQQFDDREFLADFAMGLKLDFNNKYLVLDASTELLKFTAIESSDCCNRNCLPKMCIPINMKILTYGRELSRPDIVVEKDCSCTMLCLNRPTIKMYDFSNNNNKELIGTIKAPFSCCSYKFDLYDSAMRKIIYMDDTCCQLSILFPCPCGPFKFSNFFLRDAKTHEKVAHLQKEVPFLKFVKRDIDNYTLNFEQVQNPEWKMMLLAFSLFMDYIYYDRK,not soluble
18,MAHHHHHHMHRRTLRRLQQVVQNPPVGSANIPSPYATEGGHVPIWSIVNGFVQKRNWVFRNPEWCDLCKEPVALWVNHHGRKDHALMDMHYTQMVEFPRRWNPEEILAVFLEELGLSVEAYQKYYGGYEREHRNELYAMLVALEEAKMLHFGEPRDTYLYRMQGGLRGMDHQGALVLHRYILGPFMRIYPNGHIQDYSNLVDFVTCAYNMETVYDLCGFYTLDKVALKADYKPSSPAALGLGGIAVHSSATHGFAQQAMEKPQQSPQPQPQRHMTVGTGGRSAADMEEEAFSRKAVFVRQLLGQLRWLTLPDEEHPAGHMFPQHLMFLGEICLKSLVAEIVAARLCEYMVRVEPVWRDHGYERVKLDVDKIMRKENDILPEPVKFFYRPMSPKMDDLYSTNRGNLDEALEKAVVAPVSGKGA,soluble
19,MAHHHHHHMHSAALRRREEAAKSLAELEPEYAQIVADLPALEARKAAAEKEQEALWAELGMKQDESEAGLYESEFSDEATSCIRWCETGGCIGTGPRESHRDKSCSNVIDRDSSGYCECKTNDKKDEPEDDEEDVEPEAEGEGTEVRRGTVTYRFSSGHPRFTCMYVCDHSGEAGVDQQPEKLESFTILGELREASKSLERKKNRLEEVKGAMEAAKKLLSSPTITTEDLLRTLEKEEFTIDFQEYTYAIVMFDTVYQRDMGMTTGGNLLGLWKSFAENTYSVWAKDAHDLTQMIYDNGLKCWNGVVRNVEVHLVCGPENKLMTVEEPSMCNYRMVFETPAMCDD,soluble
